Source: publication PMC314469, “Protein Interaction Networks by Proteome Peptide Scanning” (PLoS Biology, 2004)

Each binder was assayed against Sho1 SH3 (SHO1_YEAST), P40073 (assay: SPOT array).
Chain of Sho1 SH3 (SHO1_YEAST), P40073 (P40073 295-366): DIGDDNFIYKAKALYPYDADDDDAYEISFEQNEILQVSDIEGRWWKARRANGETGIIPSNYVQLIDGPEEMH

| Binder | normalised SPOT signal, Boehringer light units (BLU); mean over the file's lines of this peptide |
| --- | --- |
| TRRPHHPLKQQSTN [34-47 Hypothetical ORF] | 177 |
| TDYPFKPPKVNFTT | 74.8 |
| SDKPLTPTKTSSTL [341-354 DNA Damage Inducible; binds to T- and V- snare complexes] | 135 |
| TLIPPIPEKQSIKN [210-223 Hypothetical ORF] | 86.6 |
| SNDPIPPPRKVSDV [457-470 transcriptional activator of the SKN7 mediated 'two-component' regulatory system] | 108 |
| SAFPQSPIRAYGST [1382-1395 negative regulator of early meiotic genes] | 75.1 |
| SKGPRTPAKEILEF [310-323 " similar to Est1, which is a putative component of telomerase"] | 1610 |
| SLAPVYPLKSLLRI [665-678 Hypothetical ORF] | 91.3 |
| TSTPPLPRRRATTS [247-260 Glycine-threonine-serine repeat protein] | 366 |
| SLPPTPPYKAHKKK [353-366 Hypothetical ORF] | 544 |
| SASPYRPQRLPAKF [13-26 Hypothetical ORF] | 118 |
| SSIPPNPGKTAKPI [108-121 " Probable transcription-associated factor protein, probable -transducin type"] | 121 |
| SKIPMLPSRRTMAG [505-518 Meiotic regulatory protein; Cys-His zinc fingers] | 1130 |
| TLRPGIPLKPMLAK [384-397 DNA ligase] | 452 |
| TPAPNLPEKTRLAL [872-885 Urea amidolyase (contains urea carboxylase and allophanate hydrolase)] | 60.9 |
| RPPPLTPEKNLYLT [258-271 Putative participant in 3' mRNA processing] | 117 |
| RPNPTQPRKPLDSK [776-789 vacuolar import degradation] | 99.9 |
| RRKPHSPNKKKPKE [12-25 Hypothetical ORF] | 173 |
| STSPPRPKRIVVAI [48-61 Phenylacrylic acid decarboxylase] | 115 |
| TEPPMNPLKNREKM [109-122 actin-related protein] | 138 |

| Binder | normalised SPOT signal, Boehringer light units (BLU); mean over the file's lines of this peptide |
| --- | --- |
| SHLPLIPEKIKSLK [203-216 similar to E. coli DinB and S. cerevisiae REV1] | 175 |
| SEEPTSPTRQVNPE [443-456 Putative participant in 3' mRNA processing] | 157 |
| SNSPQIPKKKVKDQ [1825-1838 Hypothetical ORF] | 67.2 |
| SSYPMNPPKISFMQ [86-99 Member of ubiquitin-conjugating protein family] | 73.5 |
| SGKPKKPYRRWTPE [666-679 negative regulator of prp genes] | 233 |
| TNPPIDPIREANVM [572-585 Glutamate synthase (NADPH)] | 0 |
| SSFPTIPLRASSGA [232-245 Hypothetical ORF] | 210 |
| RPSPWLPSKPNSYH | 1300 |
| TKTPTQPIRLQTVS [519-532 putative zinc finger protein] | 40.1 |
| SELPKSPYRQKPTQ [124-137 " involved in meiosis, nuclear division and spore formation"] | 200 |
| SDLPSSPIKAPNVE [232-245 DNA replication helicase] | 191 |
| SSRPTSPVRKARST [28-41 (putative) cell cycle exonuclease] | 102 |
| SGKPLFPGRDYHHQ [221-234 MAP protein kinase homolog involved in pheromone signal transduction] | 103 |
| SSTPIVPNRLKTVL [158-171 DNA replication helicase] | 161 |
| SRKPPIPAKQHVKK [547-560 Ubiquitin-specific protease] | 1010 |
| TDSPQLPSKDKSQE [472-485 " Anti-silencing protein, involved in transcription"] | 81.7 |
| SNNPSKPRKYKTKS [110-123 Hypothetical ORF] | 332 |
| TDYPFKPPKISFTT | 178 |
| SSQPRPPPRPQQNP [71-84 Hypothetical ORF] | 83.4 |
| SSMPNSPKKPVDSL [117-130 Product of gene unknown] | 63.7 |

| Binder | normalised SPOT signal, Boehringer light units (BLU); mean over the file's lines of this peptide |
| --- | --- |
| SNFPDFPLKKYLKN [333-346 Hypothetical ORF] | 115 |
| SNSPISPHKLIYKN [473-486 positive transcriptional regulator of ADH2 and peroxisomal protein genes] | 86.9 |
| SMYPGLPSRLEKEL [307-320 actin-related protein] | 334 |
| TEAPMNPLKNREQM [114-127 Centractin] | 132 |
| THAPTTPNRTSPNR [507-520 serine/threonine protein kinase] | 60.5 |
| TSAPDIPPRSPNRN [54-67 Hypothetical ORF] | 107 |
| SALPILPKREVVTR [19-32 soluble cell wall protein] | 141 |
| TPPPVEPLKTKDLA [102-115 Hypothetical ORF] | 128 |
| RNEPVKPFRNIDLK [29-42 delta-1-pyrroline-5-carboxylate dehydrogenase] | 87.5 |
| RPTPRKPSRMATDH [8-21 Transmembrane osmosensor] | 1440 |
| SKFPELPSKVHNAV [141-154 methionyl tRNA synthetase] | 124 |
| RRGPGRPRKDASTS [204-217 nuclear protein involved in silencing] | 998 |
| TKVPSKPDRNSKIL [463-476 global regulator of transcription] | 132 |
| SHQPYLPIKNKNIV [329-342 Hypothetical ORF] | 65.5 |
| TEVPSKPKKPSKTE [568-581 negative regulator of prp genes] | 79.6 |
| SSTPTTPERPKRKS [758-771 Hypothetical ORF] | 214 |
| SASPTLPTRRSRRL [62-75 Hypothetical ORF] | 212 |
| RVHPEPPNKPGITT [407-420 Hypothetical ORF] | 149 |
| TNYPVNPEKHEMDK [1667-1680 GTPase activating protein] | 29.3 |
